According to US20040044182A1 (published 2004):

Biological target: T1, β2m (12 kDa non-polymorphic light chain) (human, UniProt P61769 21-119)
T1 construct: No recombinant β2m was added; It came from the human HEK293 cells and co-purified under native conditions; also called beta-2-microglobulin
Experiment: immunoblot of the purified protein with anti-β2m antibody (co-purification under native conditions)
Experimental: Human leukocyte antigens are heterodimeric molecules comprised of glycosylated heavy chains non-covalently associated with a 12 kDa non-polymorphic light chain called β2m. PurifiedrsHLA-G1 (10 to 100 ng) and rsHLA-G2 (10 to 1000 ng) were separated on 15% SDS-PAGE, transferred to nitrocellulose membranes and immuno-detected with anti-Flag M1 antibody or anti-β2m, as shown in FIG. 6. Only rsHLA-G1 was positive for β2m. […] To produce the immunoblot of FIG. 6, purified recombinant sHLA-G1 (10-100 ng) and purified recombinant sHLA-G2 (10-1000 ng) were separated using 15% PAGE-SDS and electrotransferred to nitrocellulose membranes. One blot was detected with anti-Flag-M1 antibody and the other with a mouse anti-β2m. This experiment provides evidence that sBLA-G2 is produced as free alpha chains, while sHLA-G1 is bound to β2m.

- binding result: no binding (tested: up to 1 µg)
B1: recombinant soluble HLA-G2 (other)
MHC heavy: APLADYKDDDDKLAGSHSMRYFSAAVSRPGRGEPRFIAMGYVDDTQFVRFDSDSACPRMEPRAPWVEQEGPEYWEEETRNTKAHAQTDRMNLQTLRGYYNQSEANPPKTHVTHHPVFDYEATLRCWALGFYPAEIILTWQRDGEDQTQDVELVETRPAGDGTFQKWAAVVVPSGEEQRYTCHVQHEGLPEPLMLRWSKEGDGGIMSVRESRSLSEDL
modifications: glycosylated
notes: Secreted from HEK293 cells; The first amino acid of the α3 domain is asparagine, not aspartic acid as in sHLA-G1; Produced as free alpha chains; also called rsHLA-G2; sHLA-G2
